The record followed here is publication PMC6553756 (PLoS ONE, 2019).

One experiment addresses T1, recombinant mouse PrP (Mus musculus, UniProt P04925).
T1 construct: also called rMoPrP
As to the kind of experiment: ELISA. (In general: In an ELISA, binding on a coated surface is turned into a signal by an enzyme label.)

Experiment [1] addresses T2, cellular prion protein (PrP^C) expressed in the brain of mock-infected mice (Mus musculus, mouse strain not shown, UniProt P04925).
T2 construct: source: endogenous, frozen brain sections of mock-infected mice
In words: immunostaining of cells or tissue. The settings on record: one partner purified.

The target in experiment [2] is abnormal isoform prion protein (PrP^Sc) in the brain of Chandler prion-infected mice (Mus musculus, brain, Chandler prion …, UniProt P04925). As to the kind of experiment: immunostaining of cells or tissue. The settings on record: one partner purified.
Chain of abnormal isoform prion protein (PrP^Sc) in the brain of Chandler prion-infected mice (P04925 23-230): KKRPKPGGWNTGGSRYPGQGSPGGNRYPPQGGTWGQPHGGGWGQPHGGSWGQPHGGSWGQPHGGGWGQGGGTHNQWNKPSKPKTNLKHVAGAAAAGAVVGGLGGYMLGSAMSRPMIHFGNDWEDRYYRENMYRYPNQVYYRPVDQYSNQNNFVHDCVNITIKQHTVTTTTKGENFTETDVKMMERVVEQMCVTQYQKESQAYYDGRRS

T1 sequence (P04925 23-230): as above
T2 sequence (P04925 23-230): as above

B1: authentic anti-PrP monoclonal antibody 44B1 (IgG-44B1) (antibody, V domains shown)
VH: DVKLVESGEGLVKPGGSLKLSCAASGITFSRYAMSWVRQTPEKRLEWVAYISSGGDYINYADTVKGRFTISRDNARNTLYLQMSSLKSEDTAMYYCTRVTPYWYFDVWGTGTTVTVSS
VL: DIVLTQSPASLGVSLGQRATISCRASESVDSYGNSFMHWYQQKPGQPPKVLIYRASNRESGIPARFSGSGSRTDFTLTINPVEADDVATYYCQQSNEDPYTFGGGTKLEIK
notes: also called mAb 44B1; source: hybridoma, purified IgG; copies: 2 + 2
B1: the binding result (with recombinant mouse PrP (both partners purified); in experiment [1]; in experiment [2]) was “binds” each time.

B2: recombinant Fab of mAb 44B1 (rFab-44B1) (Fab, V domains shown)
VH: DVKLVESGEGLVKPGGSLKLSCAASGITFSRYAMSWVRQTPEKRLEWVAYISSGGDYINYADTVKGRFTISRDNARNTLYLQMSSLKSEDTAMYYCTRVTPYWYFDVWGTGTTVTVSS
VL: DIVLTQSPASLGVSLGQRATISCRASESVDSYGNSFMHWYQQKPGQPPKVLIYRASNRESGIPARFSGSGSRTDFTLTINPVEADDVATYYCQQSNEDPYTFGGGTKLEIK
notes: source: HEK293T, transfected (IRES plasmid), culture supernatant
With B2, the binding result with recombinant mouse PrP (one partner purified) is given as “binds”.
